Assay results from paper PMC10786891, “Massively parallel profiling of RNA-targeting CRISPR-Cas13d”.

T1: EsCas13d, nuclease-dead (Eubacterium siraeum, UniProt B0MS50, R295A;H300A;R849A;H854A)
T1 sequence: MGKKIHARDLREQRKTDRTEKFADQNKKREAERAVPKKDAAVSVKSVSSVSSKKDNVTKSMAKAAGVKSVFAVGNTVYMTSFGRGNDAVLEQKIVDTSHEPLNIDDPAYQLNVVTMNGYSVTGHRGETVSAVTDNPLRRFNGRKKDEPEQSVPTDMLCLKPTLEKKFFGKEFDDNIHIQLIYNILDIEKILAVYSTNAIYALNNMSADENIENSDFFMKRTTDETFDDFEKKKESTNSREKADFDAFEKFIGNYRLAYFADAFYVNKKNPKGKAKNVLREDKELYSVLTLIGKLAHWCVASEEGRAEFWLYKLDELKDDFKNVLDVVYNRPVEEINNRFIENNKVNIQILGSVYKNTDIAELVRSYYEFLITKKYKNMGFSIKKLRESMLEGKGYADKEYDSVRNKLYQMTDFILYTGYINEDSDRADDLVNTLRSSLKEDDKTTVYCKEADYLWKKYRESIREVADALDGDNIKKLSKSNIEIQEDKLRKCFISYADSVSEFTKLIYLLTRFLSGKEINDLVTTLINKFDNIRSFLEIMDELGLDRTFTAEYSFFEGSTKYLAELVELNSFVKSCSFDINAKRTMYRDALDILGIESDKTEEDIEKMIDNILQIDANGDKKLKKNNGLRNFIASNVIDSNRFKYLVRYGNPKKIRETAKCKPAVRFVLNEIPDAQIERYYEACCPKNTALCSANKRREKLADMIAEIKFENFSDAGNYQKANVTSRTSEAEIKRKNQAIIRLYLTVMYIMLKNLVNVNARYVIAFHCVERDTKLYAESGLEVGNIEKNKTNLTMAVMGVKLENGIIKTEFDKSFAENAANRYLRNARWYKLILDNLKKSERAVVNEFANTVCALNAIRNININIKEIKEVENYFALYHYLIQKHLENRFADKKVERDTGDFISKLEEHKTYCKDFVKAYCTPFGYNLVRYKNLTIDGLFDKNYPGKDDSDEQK


Molecular target: T1, EsCas13d, nuclease-dead
Assay: crRNA (strand 1, pre-loaded); Mg2+; 40 mM Tris-HCl pH 7.5, 150 mM NaCl, 6 mM MgCl2, 1 mM DTT, 0.1% Tween-20, 0.2 mg/ml BSA; 25 C; 10 min per concentration, then washed
Settings: tags: His6-TwinStrep-SUMO cleaved; N-terminal SNAP kept (SNAP-Surface 488); label: 3' end held by stalled T7 RNA polymerase

Row | Binder | Kd [nM]
1 | target 1 insA 3' of 17,insG 3' of 4 (mixed) RNA 1: CACCCGUGCAAAAAUGCAGGGGUCUAAAACUGAGCGGAUAACCUCUCUAUGG RNA 2: GGGAAUGGAUCCACAUCUACGAAUUCGUACCAUAGAAGAGGUUAUCCGCGUCACCGAGAUCGGAAGAGCACACGU | 10.2 ± 0.4
2 | target 1 A16C,C21U (mixed) RNA 1: CACCCGUGCAAAAAUGCAGGGGUCUAAAACUGAGCGGAUAACCUCUCUAUGG RNA 2: GGGAAUGGAUCCACAUCUACGAAUUCGUACUAUAGCGAGGUUAUCCGCUCACCGAGAUCGGAAGAGCACACGU | 8.5 ± 0.6
3 | target 3 del2,del22 (mixed) RNA 1: CACCCGUGCAAAAUUGCAGGGGUCUAAAACGACCUGAAUAUUUCAGAUCAAA RNA 2: GGGAAUGGAUCCACAUCUACGAAUUCGUUUUGAUCUGAAAUAUUCAGGCUGCAGAUCGGAAGAGCACACGU | 5.25 ± 0.7
4 | target 3 C6A,U22A (mixed) RNA 1: CACCCGUGCAAAAUUGCAGGGGUCUAAAACGACCUGAAUAUUUCAGAUCAAA RNA 2: GGGAAUGGAUCCACAUCUACGAAUUCGUUAUUGAUCUGAAAUAUUAAGGUCUGCAGAUCGGAAGAGCACACGU | 59.5 ± 6.5
5 | target 3 G4A,U8A (mixed) RNA 1: CACCCGUGCAAAAUUGCAGGGGUCUAAAACGACCUGAAUAUUUCAGAUCAAA RNA 2: GGGAAUGGAUCCACAUCUACGAAUUCGUUUUUGAUCUGAAAUAAUCAAGUCUGCAGAUCGGAAGAGCACACGU | 76.5 ± 9.5
6 | target 3 insU 3' of 14,insG 3' of 2 (mixed) RNA 1: CACCCGUGCAAAAUUGCAGGGGUCUAAAACGACCUGAAUAUUUCAGAUCAAA RNA 2: GGGAAUGGAUCCACAUCUACGAAUUCGUUUUUGAUCUGUAAAUAUUCAGGUGCUGCAGAUCGGAAGAGCACACGU | 33.5 ± 11
7 | target 3 G3C,U7G (mixed) RNA 1: CACCCGUGCAAAAUUGCAGGGGUCUAAAACGACCUGAAUAUUUCAGAUCAAA RNA 2: GGGAAUGGAUCCACAUCUACGAAUUCGUUUUUGAUCUGAAAUAUGCAGCUCUGCAGAUCGGAAGAGCACACGU | 60 ± 7.5
8 | target 3 C1U,U21A (mixed) RNA 1: CACCCGUGCAAAAUUGCAGGGGUCUAAAACGACCUGAAUAUUUCAGAUCAAA RNA 2: GGGAAUGGAUCCACAUCUACGAAUUCGUUUAUGAUCUGAAAUAUUCAGGUUUGCAGAUCGGAAGAGCACACGU | 84 ± 26
9 | target 3 insC 3' of 22,insA 3' of 6 (mixed) RNA 1: CACCCGUGCAAAAUUGCAGGGGUCUAAAACGACCUGAAUAUUUCAGAUCAAA RNA 2: GGGAAUGGAUCCACAUCUACGAAUUCGUUUCUUGAUCUGAAAUAUUCAAGGUCUGCAGAUCGGAAGAGCACACGU | 14.8 ± 1.95
10 | target 3 A5G,C6G (mixed) RNA 1: CACCCGUGCAAAAUUGCAGGGGUCUAAAACGACCUGAAUAUUUCAGAUCAAA RNA 2: GGGAAUGGAUCCACAUCUACGAAUUCGUUUUUGAUCUGAAAUAUUGGGGUCUGCAGAUCGGAAGAGCACACGU | 20.4 ± 1.75
11 | target 3 insU 3' of 5,insC 3' of 5 (mixed) RNA 1: CACCCGUGCAAAAUUGCAGGGGUCUAAAACGACCUGAAUAUUUCAGAUCAAA RNA 2: GGGAAUGGAUCCACAUCUACGAAUUCGUUUUUGAUCUGAAAUAUUCAUCGGUCUGCAGAUCGGAAGAGCACACGU | 6.59 ± 0.54
12 | target 3 G3C,C6A (mixed) RNA 1: CACCCGUGCAAAAUUGCAGGGGUCUAAAACGACCUGAAUAUUUCAGAUCAAA RNA 2: GGGAAUGGAUCCACAUCUACGAAUUCGUUUUUGAUCUGAAAUAUUAAGCUCUGCAGAUCGGAAGAGCACACGU | 27 ± 2
13 | target 3 insG 3' of 18,insU 3' of 1 (mixed) RNA 1: CACCCGUGCAAAAUUGCAGGGGUCUAAAACGACCUGAAUAUUUCAGAUCAAA RNA 2: GGGAAUGGAUCCACAUCUACGAAUUCGUUUUUGAGUCUGAAAUAUUCAGGUCUUGCAGAUCGGAAGAGCACACGU | 82.5 ± 17
14 | target 3 insA 3' of 8,insC 3' of 3 (mixed) RNA 1: CACCCGUGCAAAAUUGCAGGGGUCUAAAACGACCUGAAUAUUUCAGAUCAAA RNA 2: GGGAAUGGAUCCACAUCUACGAAUUCGUUUUUGAUCUGAAAUAUAUCAGGCUCUGCAGAUCGGAAGAGCACACGU | 43 ± 7
15 | target 3 insG 3' of 2,insG 3' of 1 (mixed) RNA 1: CACCCGUGCAAAAUUGCAGGGGUCUAAAACGACCUGAAUAUUUCAGAUCAAA RNA 2: GGGAAUGGAUCCACAUCUACGAAUUCGUUUUUGAUCUGAAAUAUUCAGGUGCGUGCAGAUCGGAAGAGCACACGU | 25.6 ± 4.25
16 | target 3 insC 3' of 22,insG 3' of 22 (mixed) RNA 1: CACCCGUGCAAAAUUGCAGGGGUCUAAAACGACCUGAAUAUUUCAGAUCAAA RNA 2: GGGAAUGGAUCCACAUCUACGAAUUCGUUUCGUUGAUCUGAAAUAUUCAGGUCUGCAGAUCGGAAGAGCACACGU | 65.5 ± 21.5
17 | target 3 A18G,U21C (mixed) RNA 1: CACCCGUGCAAAAUUGCAGGGGUCUAAAACGACCUGAAUAUUUCAGAUCAAA RNA 2: GGGAAUGGAUCCACAUCUACGAAUUCGUUUCUGGUCUGAAAUAUUCAGGUCUGCAGAUCGGAAGAGCACACGU | 75 ± 26
18 | target 3 G3C,A5G (mixed) RNA 1: CACCCGUGCAAAAUUGCAGGGGUCUAAAACGACCUGAAUAUUUCAGAUCAAA RNA 2: GGGAAUGGAUCCACAUCUACGAAUUCGUUUUUGAUCUGAAAUAUUCGGCUCUGCAGAUCGGAAGAGCACACGU | 16.1 ± 1.4
19 | target 3 insA 3' of 22,insU 3' of 6 (mixed) RNA 1: CACCCGUGCAAAAUUGCAGGGGUCUAAAACGACCUGAAUAUUUCAGAUCAAA RNA 2: GGGAAUGGAUCCACAUCUACGAAUUCGUUUAUUGAUCUGAAAUAUUCUAGGUCUGCAGAUCGGAAGAGCACACGU | 32.5 ± 5.5
20 | target 3 insA 3' of 7,insA 3' of 7 (mixed) RNA 1: CACCCGUGCAAAAUUGCAGGGGUCUAAAACGACCUGAAUAUUUCAGAUCAAA RNA 2: GGGAAUGGAUCCACAUCUACGAAUUCGUUUUUGAUCUGAAAUAUUAACAGGUCUGCAGAUCGGAAGAGCACACGU | 38 ± 5.5
21 | target 3 C1G,G3U (mixed) RNA 1: CACCCGUGCAAAAUUGCAGGGGUCUAAAACGACCUGAAUAUUUCAGAUCAAA RNA 2: GGGAAUGGAUCCACAUCUACGAAUUCGUUUUUGAUCUGAAAUAUUCAGUUGUGCAGAUCGGAAGAGCACACGU | 18.6 ± 3.35
22 | target 3 insC 3' of 7,insC 3' of 4 (mixed) RNA 1: CACCCGUGCAAAAUUGCAGGGGUCUAAAACGACCUGAAUAUUUCAGAUCAAA RNA 2: GGGAAUGGAUCCACAUCUACGAAUUCGUUUUUGAUCUGAAAUAUUCCAGCGUCUGCAGAUCGGAAGAGCACACGU | 74.5 ± 15
23 | target 3 insG 3' of 7,insG 3' of 7 (mixed) RNA 1: CACCCGUGCAAAAUUGCAGGGGUCUAAAACGACCUGAAUAUUUCAGAUCAAA RNA 2: GGGAAUGGAUCCACAUCUACGAAUUCGUUUUUGAUCUGAAAUAUUGGCAGGUCUGCAGAUCGGAAGAGCACACGU | 41.5 ± 5.5
24 | target 3 insA 3' of 2,insG 3' of 2 (mixed) RNA 1: CACCCGUGCAAAAUUGCAGGGGUCUAAAACGACCUGAAUAUUUCAGAUCAAA RNA 2: GGGAAUGGAUCCACAUCUACGAAUUCGUUUUUGAUCUGAAAUAUUCAGGUAGCUGCAGAUCGGAAGAGCACACGU | 20.9 ± 2.15
25 | target 3 insG 3' of 9,insA 3' of 3 (mixed) RNA 1: CACCCGUGCAAAAUUGCAGGGGUCUAAAACGACCUGAAUAUUUCAGAUCAAA RNA 2: GGGAAUGGAUCCACAUCUACGAAUUCGUUUUUGAUCUGAAAUAGUUCAGGAUCUGCAGAUCGGAAGAGCACACGU | 55.5 ± 12.5
26 | target 3 insU 3' of 13,insC 3' of 3 (mixed) RNA 1: CACCCGUGCAAAAUUGCAGGGGUCUAAAACGACCUGAAUAUUUCAGAUCAAA RNA 2: GGGAAUGGAUCCACAUCUACGAAUUCGUUUUUGAUCUGAUAAUAUUCAGGCUCUGCAGAUCGGAAGAGCACACGU | 86.5 ± 19.5
27 | target 3 G4U,U22G (mixed) RNA 1: CACCCGUGCAAAAUUGCAGGGGUCUAAAACGACCUGAAUAUUUCAGAUCAAA RNA 2: GGGAAUGGAUCCACAUCUACGAAUUCGUUGUUGAUCUGAAAUAUUCAUGUCUGCAGAUCGGAAGAGCACACGU | 37 ± 6
28 | target 3 insU 3' of 6,insC 3' of 5 (mixed) RNA 1: CACCCGUGCAAAAUUGCAGGGGUCUAAAACGACCUGAAUAUUUCAGAUCAAA RNA 2: GGGAAUGGAUCCACAUCUACGAAUUCGUUUUUGAUCUGAAAUAUUCUACGGUCUGCAGAUCGGAAGAGCACACGU | 15.4 ± 1.45
